Source: patent publication US9029508 (dated 2015)
Several values for one entry are separate records, joined by “and”; a condition that tells them apart may be missing. Equal values may be shown once. Read-outs that look alike come from different tables or passages of the source.

How the values were obtained:
CD80 = molecular target: T1, CD80 (human, UniProt P33681); experiment: ELISA
T1 chain: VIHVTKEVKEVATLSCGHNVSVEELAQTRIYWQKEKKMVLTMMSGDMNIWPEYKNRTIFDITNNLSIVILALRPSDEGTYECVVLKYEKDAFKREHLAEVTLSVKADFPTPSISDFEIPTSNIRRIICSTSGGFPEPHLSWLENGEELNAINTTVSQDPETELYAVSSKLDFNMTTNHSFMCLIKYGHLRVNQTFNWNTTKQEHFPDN

HGF [1] = molecular target: T2, HGF (human, UniProt P14210); experiment: ELISA
HGF [2] = molecular target: T2, HGF; experiment: competition
HGF [3] = molecular target: T2, HGF; experiment: SPR
HGF [4] = molecular target: T2, HGF; experiment: ELISA; remark: listed apart in the source
RON [5] = molecular target: T3, RON (human, UniProt Q04912); experiment: SPR
RON [6] = molecular target: T3, RON; experiment: ELISA
RON [7] = molecular target: T3, RON; experiment: ELISA; remark: listed apart in the source
NRP1 [8] = molecular target: T4, NRP1 (human, UniProt O14786); experiment: ELISA
NRP1 [9] = molecular target: T4, NRP1; experiment: SPR
CD22 = CD22 (human, UniProt P20273); experiment: ELISA
DLL4 [10] = molecular target: T5, DLL4 (human, UniProt Q9NR61); experiment: competition
DLL4 [11] = molecular target: T5, DLL4; experiment: ELISA
DLL4 [12] = molecular target: T5, DLL4; experiment: SPR
DLL4 [13] = molecular target: T5, DLL4; experiment: ELISA; remark: listed apart in the source
DLL4 [14] = molecular target: T5, DLL4; experiment: ELISA; remark: listed apart in the source

T2 sequence (P14210 32-728): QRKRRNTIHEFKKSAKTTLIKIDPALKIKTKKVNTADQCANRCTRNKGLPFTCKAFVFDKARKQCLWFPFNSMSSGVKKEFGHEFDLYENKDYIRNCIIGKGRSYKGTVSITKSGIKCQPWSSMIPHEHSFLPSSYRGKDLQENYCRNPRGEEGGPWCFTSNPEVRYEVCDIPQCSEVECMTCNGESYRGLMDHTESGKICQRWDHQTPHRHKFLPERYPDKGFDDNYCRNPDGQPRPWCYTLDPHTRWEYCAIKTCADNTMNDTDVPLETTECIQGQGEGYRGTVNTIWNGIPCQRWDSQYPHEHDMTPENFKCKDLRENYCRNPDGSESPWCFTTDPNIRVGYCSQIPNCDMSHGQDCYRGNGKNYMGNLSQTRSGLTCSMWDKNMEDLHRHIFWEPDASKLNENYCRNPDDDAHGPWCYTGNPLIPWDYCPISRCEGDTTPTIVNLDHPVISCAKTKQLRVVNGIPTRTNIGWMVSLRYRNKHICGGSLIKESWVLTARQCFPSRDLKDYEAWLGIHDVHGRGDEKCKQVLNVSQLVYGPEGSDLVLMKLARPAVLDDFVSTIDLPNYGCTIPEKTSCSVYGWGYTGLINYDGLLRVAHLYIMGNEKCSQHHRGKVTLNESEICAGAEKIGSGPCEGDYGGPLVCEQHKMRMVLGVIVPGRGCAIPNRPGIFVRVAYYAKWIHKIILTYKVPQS
T5 sequence (Q9NR61 27-524): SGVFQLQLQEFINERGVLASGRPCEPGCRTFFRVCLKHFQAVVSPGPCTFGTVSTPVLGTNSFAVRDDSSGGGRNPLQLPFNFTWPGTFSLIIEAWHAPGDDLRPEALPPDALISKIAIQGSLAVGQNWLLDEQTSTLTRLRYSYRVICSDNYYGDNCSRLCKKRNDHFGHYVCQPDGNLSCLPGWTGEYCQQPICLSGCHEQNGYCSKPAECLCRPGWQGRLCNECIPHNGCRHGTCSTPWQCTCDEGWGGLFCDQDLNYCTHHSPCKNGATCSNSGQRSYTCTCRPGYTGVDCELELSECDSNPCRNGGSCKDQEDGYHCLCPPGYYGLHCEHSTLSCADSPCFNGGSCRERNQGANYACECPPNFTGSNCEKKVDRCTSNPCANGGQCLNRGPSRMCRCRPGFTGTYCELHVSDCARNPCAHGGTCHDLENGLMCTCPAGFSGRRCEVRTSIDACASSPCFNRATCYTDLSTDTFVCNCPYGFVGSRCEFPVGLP

B1: AB007 (antibody, V domains shown)
VH: QVQLQESGPGLVKPSETLSLTCAVSGGSISGGYGWGWIRQPPGKGLEWIGSFYSSSGNTYYNPSLKSQVTISTDTSKNQFSLKLNSMTAADTAVYYCVRDRLFSVVGMVYNNWFDVWGPGVLVTVSS
VL: ESALTQPPSVSGAPGQKVTISCTGSTSNIGGYDLHWYQQLPGTAPKLLIYDINKRPSGISDRFSGSKSGTAASLAITGLQTEDEADYYCQSYDSSLNAQVFGGGTRLTVLG
Question: B1 was tested. Which EC50 (CD80) did it give?
Answer: 0.77 nM

B2: DVD045 HGF arm (antibody, V domains shown)
VH: QVQLVESGGGLVKPGGSLRLSCAASGFTFSDYYMSWIRQAPGKGLEWVSYISSSGSTIYYADSVKGRFTISRDNAKNSLYLQMNSLRAEDTAVYYCARDEYNSGWYVLFDYWGQGTLVTVSS
VL: DIQMTQSPSSVSASVGDRVTITCRASQGISSWLAWYQQKPGKAPNLLIYEASSLQSGVPSRFGGSGSGTDFTLTISSLQPEDFATYYCQQANGFPWTFGQGTKVEIKR
modifications: DVD-Ig inner
Question: B2 was tested. Which EC50 (HGF [1]) did it give?
Answer: 185 nM

Question: And the IC50 (HGF [2])?
Answer: > 100 nM

Question: And the Kd (HGF [3])?
Answer: 0.901 nM

Question: And the EC50 (HGF [4])?
Answer: > 100 nM

B3: AB005 (antibody, V domains shown)
VH: EVQLVQSGGGLVKPGGSLRLSCAASGFTFSSYAMHWVRQAPGKGLEWVAVISYDGSNKYYADSVKGRFTISRDNSKNTLYLQMNSLRAEDTAVYYCARFSGWPNNYYYYGMDVWGQGTTVTVSS
VL: DVVMTQSPLSLPVTPGEPASISCRSSQSLLHSNGFNYVDWYLQKPGQSPHLLIYFGSYRASGVPDRFSGSGSGTDFTLKISRVEAEDVGVYYCMQALQTPPWTFGQGTKVEIRR
Question: Which results are given for B3?
Answer: Kd (RON [5]): 20.2 nM and 20.1 nM; EC50 (RON [6]): 0.26 nM and 0.21 nM; EC50 (RON [7]): 1.6 nM and 0.7 nM and 1.3 nM

B4: AB016 (antibody, V domains shown)
VH: EVQLVESGGGLVQPGGSLRLSCAASGFSFSSEPISWVRQAPGKGLEWVSSITGKNGYTYYADSVKGRFTISADTSKNTAYLQMNSLRAEDTAVYYCARWGKKVYGMDVWGQGTLVTVSS
VL: DIQMTQSPSSLSASVGDRVTITCRASQSISSYLAWYQQKPGKAPKLLIYGASSRASGVPSRFSGSGSGTDFTLTISSLQPEDFATYYCQQYMSVPITFGQGTKVEIKR
Question: How did the EC50 (NRP1 [8]) turn out when B4 was run?
Answer: 0.58 nM

Question: What about the Kd (NRP1 [9]) of the same binder?
Answer: 2.67 nM

B5: DVD050 NRP1 arm (antibody, V domains shown)
VH: EVQLVESGGGLVQPGGSLRLSCAASGFSFSSEPISWVRQAPGKGLEWVSSITGKNGYTYYADSVKGRFTISADTSKNTAYLQMNSLRAEDTAVYYCARWGKKVYGMDVWGQGTLVTVSS
VL: DIQMTQSPSSLSASVGDRVTITCRASQSISSYLAWYQQKPGKAPKLLIYGASSRASGVPSRFSGSGSGTDFTLTISSLQPEDFATYYCQQYMSVPITFGQGTKVEIKR
modifications: DVD-Ig outer
Question: With B5 as the binder, how does the EC50 (NRP1 [8]) read?
Answer: 0.46 nM

Question: What about the Kd (NRP1 [9]) of the same binder?
Answer: 1.44 nM

B6: DVD049 NRP1 arm (antibody, V domains shown)
VH: EVQLVESGGGLVQPGGSLRLSCAASGFSFSSEPISWVRQAPGKGLEWVSSITGKNGYTYYADSVKGRFTISADTSKNTAYLQMNSLRAEDTAVYYCARWGKKVYGMDVWGQGTLVTVSS
VL: DIQMTQSPSSLSASVGDRVTITCRASQSISSYLAWYQQKPGKAPKLLIYGASSRASGVPSRFSGSGSGTDFTLTISSLQPEDFATYYCQQYMSVPITFGQGTKVEIKR
modifications: DVD-Ig inner
Question: For B6, which EC50 (NRP1 [8]) is on record?
Answer: 0.5 nM

Question: What about the Kd (NRP1 [9]) of the same binder?
Answer: 1.28 nM

B7: AB008 (antibody, V domains shown)
VH: QVQLVQSGAEVKKPGSSVKVSCKASGYTFTSYWLHWVRQAPGQGLEWIGYINPRNDYTEYNQNFKDKATITADESTNTAYMELSSLRSEDTAFYFCARRDITTFYWGQGTTVTVSS
VL: DIQLTQSPSSLSASVGDRVTMSCKSSQSVLYSANHKNYLAWYQQKPGKAPKLLIYWASTRESGVPSRFSGSGSGTDFTFTISSLQPEDIATYYCHQYLSSWTFGGGTKLEIKR
Question: B7 was tested. Which EC50 (CD22) did it give?
Answer: 3.44 nM

B8: DVD044 DLL4 arm (antibody)
chain 1: EVQLVESGGGLVQPGGSLRLSCAASGFTFTDNWISWVRQAPGKGLEWVGYISPNSGFTYYADSVKGRFTISADTSKNTAYLQMNSLRAEDTAVYYCARDNFGGYFDYWGQGTLVTVSS
chain 2: DIQMTQSPSSLSASVGDRVTITCRASQDVSTAVAWYQQKPGKAPKLLIYSASFLYSGVPSRFSGSGSGTDFTLTISSLQPEDFATTYYCQQSYTGTVTFGQGTKVEIKR
modifications: DVD-Ig outer
Question: Which results are given for B8?
Answer: IC50 (DLL4 [10]): 0.5 nM; EC50 (DLL4 [11]): 0.25 nM; Kd (DLL4 [12]): 0.347 nM; EC50 (DLL4 [13]): 0.06 nM; EC50 (DLL4 [14]): 0.53 nM
